Measured values taken from patent US20190002846A1, “POLYPEPTIDES HAVING DEMETHYLATING ACTIVITY” (Genencor International B.V., priority 2015, published 2019).

Experiments:
[1] = Catechol oxidase activity assay: initial rate of 3-methoxycatechol oxidation at 400 nm (pH, copper and temperature optima); format: biochemical
Procedure: PPO activity was determined by measuring the initial rate of 3-methoxycatechol oxidation at 400 nm (extinction coefficient used: ε 1200 M^−1cm^−1). One unit of activity is defined as the amount of PPO activity that oxidizes 1 μmol of 3-methoxycatechol to quinone per minute. Substrate was used at a concentration of 4 mM.
The pH optima were determined by measuring the initial rate of 3-methoxycatechol oxidation with varying pHs, at room temperature and using a CuSO4 concentration of 10 μM. The pH was varied in the range of pH3-9 using Carmody buffers. Enzyme loading was applied resulting in A400 absorbance values in the range of 0.1-1. Protein concentration was determined using the BCA method.
Optimal copper concentrations for the PPOs were determined at the optimal pH by varying the concentration of CuSO4 in the range of 1-1000 μM. In these experiments the pH was controlled using 50 mM Bis-Tris buffer pH 7.0.
Temperature optima were determined by measuring A400 absorbance after 1 h incubation at temperatures in the range of 20 to 70° C. In these experiments the pH was controlled using 50 mM Bis-Tris buffer pH 7.0. Copper concentrations of (20 or 50 μM) were used to prevent chemical oxidation as background activity at higher copper concentrations.

[2] = Demethylation of syringic acid (GC methanol, UHPLC/MSMS); format: biochemical
Procedure: Syringic acid (12 mM, 2.38 g/L) was incubated with PPO7 from Example 2 (1.2 μM, 0.048 g/L, 2% loading (w/w)) in 50 mM BisTris buffer pH 6.5 with 10 μM CuSO4. Blank prepared without the addition of enzyme was included. Incubations were performed in GC headspace vials with a total of 1 mL reaction volume in duplicate at room temperature for approximately 90 h. The reaction was stopped by adding 28 μL 1M HCl to lower the pH to ˜3. One of the replicates was analyzed by GC for the methanol formation. A calibration range of 0.23 to 11.6 mM methanol in buffer with HCl was included. The second replicate was analyzed using UHPLC and the formation 3,4-dihydroxy-5-methoxybenzoic acid was confirmed using MSMS (see FIG. 5).

[3] = Methanol formation by GC, lignin-derived compound; format: biochemical; conditions: enzyme 0.5 g/L, 25° C., approx. 48 h
Procedure: Model compounds syringic acid, syringol, 1,3-dimethoxybenzene and 3,5-dimethoxybenzoic acid (12 mM) were incubated with PPO7 from Example 2 (2% loading (w/w)) in 50 mM BisTris buffer pH 6.5 with 10 μM CuSO4. For syringic acid and syringol PPO2 from Example 2 was included as a control. Lignin and lignin-derived compounds (10 g/L) were incubated with PPO7 from Example 2 (0.5 g/L, 5% loading (w/w)). PPO2 from Example 2 was included as a control and incubated using the same conditions. Blanks prepared without the addition of enzyme were included. Incubations were performed in GC headspace vials with a total of 1 mL reaction volume at 25° C. for approximately 48 h while shaking. The reaction was stopped by adding 28 μL 1M HCl to lower the pH to ˜3. Samples were analyzed by GC for methanol formation. A calibration range of 0.23 to 11.5 mM methanol in buffer with HCl was included.

[4] = molecular target: T1, RAC incubated with LPMO9B (Thermothelomyces thermophilus, UniProt G2QCJ3); assay: RAC hydrolysis assay with LPMO9B and PPO7 or AbTyr in the presence of phenolic reducing agents; format: biochemical, Myceliophthora thermophila; conditions: LPMO9B alone = 100%, or with added enzyme, pH 5.0, 50° C., 24 h
T1 construct: made in house; host or cells: Myceliophthora thermophila C1 strain W1L#100.1Δpyr5ΔAlp1
T1 sequence (G2QCJ3 19-323): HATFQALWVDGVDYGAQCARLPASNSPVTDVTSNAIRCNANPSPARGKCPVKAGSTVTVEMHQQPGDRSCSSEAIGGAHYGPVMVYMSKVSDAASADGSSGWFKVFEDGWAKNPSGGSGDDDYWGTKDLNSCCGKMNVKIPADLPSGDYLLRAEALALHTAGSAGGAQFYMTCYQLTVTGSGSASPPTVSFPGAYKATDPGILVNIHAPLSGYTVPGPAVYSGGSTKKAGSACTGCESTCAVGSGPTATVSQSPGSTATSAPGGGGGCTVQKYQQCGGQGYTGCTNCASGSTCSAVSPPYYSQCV
Procedure: Phenolic reducing agents were obtained from Sigma-Aldrich (St. Louis, Mo., USA). RAC was prepared as described above and dissolved in 50 mM phospate buffer (pH 5.0) to a final concentration of 1.5 mg/ml. Copper chloride was added to a final concentration of 2.5 μM and a phenolic reducing agent to a final concentration of 2 mM. LPMO9B (5 μg/ml) with or without PPO7 (5 μg/ml) or AbTyr (7.5 U/ml) were added and incubated for 24 h at 50° C. in a head-over-tail rotator in portions of 1 mL total volume (Stuart® rotator, Bibby Scientific LTD, Stone, UK) at 20 rpm. Products were analysed by HPAEC and MALDI-TOF MS as described previously. (Frommhagen M, Sforza S, Westphal A H, Visser J, Hinz S W, Koetsier M J et al. Discovery of the combined oxidative cleavage of plant xylan and cellulose by a new fungal polysaccharide monooxygenase. Biotechnology for Biofuels. 2015; 8:101. doi:10.1186/s13068-015-0284-1). The Activity denoted as Activity * represents total release of non-oxidized and C1-oxidized gluco-oligosaccharides from RAC incubated with LPMO9B in the presence of a phenolic reducing agent and with addition of either AbTyr or PPO7. […] Standard deviations were less than 2%.

[5] = 12 mM syringic acid, enzyme 0.048 g/L, pH 6.5, 10 μM CuSO4, room temperature, approx. 90 h, blank 0

B1: PPO7: Myceliophthora thermophila C1 polyphenoloxidase with demethylating activity, mature form SEQ ID NO: 45 (protein, listed as Myceliophthora thermophila)
chain: NPMHKRWKPNAPRNPDFPLDEVDKLEESIMPNVEAWMSKRPAKYSNCTLENAGIRREWSDLSVDERKEYISAVLCLQSKPSKIPEGEVPGALSRFDDFVATHMTMAGQLHSPTNLFAAHRYFIHAYEKALREECGYKGYQPYMNYDRYADDPLNTPLFDGSDSSMSGNGGPYNYSGIPQPFPKPYNLIPPAGGGGCVTEGPFRDMVVSLGPKGGLFHDIPRNPRADGLGSNPRCLRRDVNKYSARGARANYTYSAIMDNPDIDSFYNRYMGMPQLKGDPYPWGLHSSGHYLIGGDPGGDFYCSPGDPLFYFHHGMLDRVWWIWQMQDPENRVQAVPGTNTMPMPPLMAANLESEAAATTTHKRAVNVSDLVVDLGWTAPPVKLVDLNEQLGGLGGELCYIYV
- pHopt ([1]; 3-methoxycatechol oxidation, room temperature, 10 μM CuSO4, Carmody buffers pH3-9): 7.0
- T range ([1]; >50% of maximum activity): 20-55 °C
- pH range ([1]; >50% of maximum activity): 6.5-8.0
- [CuSO4] range ([1]; >90% of maximum activity): 100 to 1000 µM
- Topt ([1]; A400 after 1 h incubation, 20 to 70° C., 50 mM Bis-Tris pH 7.0, 20 or 50 μM copper): 40 °C
- [CuSO4]opt ([1]; at optimal pH, 50 mM Bis-Tris buffer pH 7.0, CuSO4 varied 1-1000 μM): 400 µM
- 3,4-dihydroxy-5-methoxybenzoic acid concentration (UHPLC) [2, 5]: 1.61 mM
- methanol concentration (GC) [2, 5]: 4.84 mM
- syringic acid concentration (UHPLC) ([2]; 12 mM syringic acid, enzyme 0.048 g/L, pH 6.5, 10 μM CuSO4, room temperature, approx. 90 h, blank 10.86): 3.02 mM
- Demethylation of syringic acid (in words) ([2]; formation of 3,4-dihydroxy-5-methoxybenzoic acid and methanol): catalyzed the demethylation of syringic acid
- methanol ([3]; Carboxymodified lignin (corn) 10 g/L, blank 0): 0.35 mM
- methanol ([3]; Carboxymodified lignin (wheat)1 10 g/L, blank 0): 0.31 mM
- methanol ([3]; Carboxymodified lignin (wheat)2 10 g/L, blank 0): 0.33 mM
- methanol ([3]; Fractionated BioLignin 10 g/L, blank 0.28): 0.46 mM
- methanol ([3]; Lowest MW from lignin fractionation 10 g/L, blank 0.04): 1.43 mM
- methanol ([3]; Purified wheat straw BioLignin 10 g/L, blank 0.05): 0.21 mM
- Activity: total release of non-oxidized and C1-oxidized gluco-oligosaccharides from RAC ([4]; reducing agent 3,4-dihydroxy-5-methoxybenzoic acid 2 mM): 22%
- Activity: total release of non-oxidized and C1-oxidized gluco-oligosaccharides from RAC ([4]; reducing agent 3,4-dihydroxy-5-methoxycinnamic acid 2 mM): 116%
- Activity: total release of non-oxidized and C1-oxidized gluco-oligosaccharides from RAC ([4]; reducing agent 3,4-dihydroxybenzoic acid 2 mM): 139%
- Activity: total release of non-oxidized and C1-oxidized gluco-oligosaccharides from RAC ([4]; reducing agent 3-hydroxy-4-methoxycinnamic acid 2 mM): 7558%
- Activity: total release of non-oxidized and C1-oxidized gluco-oligosaccharides from RAC ([4]; reducing agent 3-methylcatechol 2 mM): 104%
- Activity: total release of non-oxidized and C1-oxidized gluco-oligosaccharides from RAC ([4]; reducing agent 4-allyl-2,4-methoxyphenol 2 mM): 108%
- Activity: total release of non-oxidized and C1-oxidized gluco-oligosaccharides from RAC ([4]; reducing agent 4-hydroxy-3-methoxyphenylactone 2 mM): 131%
- Activity: total release of non-oxidized and C1-oxidized gluco-oligosaccharides from RAC ([4]; reducing agent caffeic acid 2 mM): 122%
- Activity: total release of non-oxidized and C1-oxidized gluco-oligosaccharides from RAC ([4]; reducing agent coniferyl aldehyde 2 mM): 562%
- Activity: total release of non-oxidized and C1-oxidized gluco-oligosaccharides from RAC ([4]; reducing agent ferulic acid 2 mM): 231%
- Activity: total release of non-oxidized and C1-oxidized gluco-oligosaccharides from RAC ([4]; reducing agent gallic acid 2 mM): 124%
- Activity: total release of non-oxidized and C1-oxidized gluco-oligosaccharides from RAC ([4]; reducing agent guaiacol 2 mM): 5143%
- Activity: total release of non-oxidized and C1-oxidized gluco-oligosaccharides from RAC ([4]; reducing agent hesperidin 2 mM): 771%
- Activity: total release of non-oxidized and C1-oxidized gluco-oligosaccharides from RAC ([4]; reducing agent homovanillic acid 2 mM): 580%
- Activity: total release of non-oxidized and C1-oxidized gluco-oligosaccharides from RAC ([4]; reducing agent vanillic acid 2 mM): 495%
